Reference: PMC6534608, “Rational design of a hypoallergenic Phl p 7 variant for immunotherapy of polcalcin-sensitized patients” (Scientific Reports, 2019)

Assays:
[1] = biological target: recombinant Phl p 7 mutant (hypoallergenic variant, four calcium-coordinating residues replaced by alanine) (timothy grass); experiment: SEC; size exclusion chromatography (Yarra SEC-X150) coupled to a UV detector (230 nm) and ICPMS; 10 mM Tris, 50 mM ammonium sulfate, pH 7.5; 30 °C; apparent molecular masses
[2] = biological target: the molecule itself; experiment: as above

Molecule: recombinant Phl p 7 mutant (hypoallergenic variant, four calcium-coordinating residues replaced by alanine) (natural protein)
- stoichiometry N [1]: 2

B1: recombinant wildtype Phl p 7 (timothy grass pollen polcalcin) (natural protein)
chain: ADDMERIFKRFDTNGDGKISLSELTDALRTLGSTSADEVQRMMAEIDTDGDGFIDFNEFISFCNANPGLMKDVAKVF
notes: codon-optimized synthetic gene in pET17b (NdeI/EcoRI); also called rPhl p 7 wildtype; Phl p 7 wildtype; source: E. coli BL21(DE3), purified (anion-exchange chromatography, HiTrap Q FF)
- stoichiometry N [2]: 2
